The nature of this data set: label from the status in PepcDB records.
In the case of “MQEYIEFFKAHTLLSLAWVGLFVMLVVSVIKSSFSKIKNVTHQELTIMVNRQDAKVVDVRSNDDFRKGHIVGAVNVTLADIKNNQVSALEKFKGSPIILVCNAGMTSSQAAQLLSKQGFENLYNLKGGMGEWQAANMPVSKSKR”, the protein production result is reported as “failed”.

Consider “MQFFDGYHYHGTTFEQSYRCYPASFIDKPQLESGDKIIMPPSALDRLASLHIDYPMLFELRNAGIERVTHCGVLEFIAEEGMIYMPYWMMQNLLLQEGDIVRVRNVTLPKGTYVKLQPHTTDFLDISNPKAILETALRNYSCLTSGDSIMVPYNNKKYFIDIVETKPANAISIIETDCEVDFAPPLDYKEPERPTAPSAAKGPAKAEEVVDEPEPKFNPFTGSGRRLDGRPLAYEPAPASSSKGKQPVVANGNGQSSVASSSEKATRAQGKLVFGANGNRAPKEAAPKVGAAKETKKEEQEKKDEPKFQAFSGKKYSLRG”, for which the protein production entry is on record as “not failed”.

“MQFIEKIGIVLATYNPNLEYFEKQIQSIKQQSWKNWVCHIVDDCSHSEYQVGIKNIIDNDPRFICHFHSHNLNHYYNFERGLKYCAQDKSITAISLADQDDIWHDDKLKILLKKLRSQKAVLIHSDLELINSYDQTIHPSAWDFEGRKPHKLSHDLLLLRNVVTGCSVLFCTSLLTDVLPFPPQNKISWYHDWWIALVASHRGKIVHIHKPLVWYRIHNANNVGVLKDSGKIHCELLLLCRKKFKINGNSYLVHRDFSKAFYRRFKRELNELGYTNPFDDRKLDFGWHILKLLYKSLLVGYNSEGAALRIGVLKLIFDIQRSYRIILYHCLKTFKSYYKNSQ”: the protein production entry is “failed”.

As for “MQFIWAALGLVCVALALIGVALPLLPTVPFLLLAAFFFARSSERLHTWLVTHRLFGPMILDWQQSGAIRPGAKKAATLSIAAVFGLSLVFAVPSHVLLIQAVVLSGVLIFIWTRPNG”, the protein production entry is given as “failed”.

Turning to “MQFKAEARRNKLMGLWVAEVLGKSGDEANAYAAEVVKADFEEAGHEDVMRKVLGDLDGKRPEAEVRAKYEGLMAVAKAQLMDEL”, the protein production entry is “not failed”.

In the case of “MQFKIIKAQELEKQQREKIAELCFAAFEEDPWSQYAFMQNAFHIIGLLGEDIVSHALWTDRVFTLNNHVTLKTAYIEYVTTDSTMRGRGLASKLLMYLINILTTKKYELAALQPEVEAFYRKLGWVSWGGNLYIKHNISIYKTDGIEVMLYPLSGGLKDQIVCSLKNDKICTDWREGELW”, the protein production result was “failed”.

As for “MQFTDFSLDQRLLQSLKHMGIATPTAIQEQALPIALAGKDLMASSKTGSGKTLAFLLPALQRVISTRALSKRDPRVLILLPTRELAHQVYSQLRLLVANTQYKAISVLGGENFNDQAKALAKEPHFIVATPGRIADHLEQKNLFLNGLELLILDEADRMLDLGFAPQLKAINEAADHKRRQTLMFSATLDHSEINEIAAALLKNPLHVAIGTAHAEHQDISQRIYLCDHLDHKEALLSRLLSDESHKQVIIFTATRADTERLAAKLSAQGFATAALSGELKQAARNQIMDQFARGQQQILVTTDVASRGLDLLNVSLVINFDMPKFAEEYVHRIGRTGRAGAKGDAISLVGPKDWDSFKKVQLFLRKTFEISVIKGLEAKFTGLKDKPKSVATKGVVKANTKGKSKPKPNVVKAAPSRDKRFITGVDVGDAPMRKKPKAQLLQESDDEI”, the protein production result is reported as “failed”.

Regarding “MQHESPIIRRKSTRIYVGDVPIGDGAPIAVQSMTNTRTTDVEATVAQIRALEKVGADIVRVSVPTMEAAEAFKLIKQQVSVPLVADIHFDYRIALKVAEYGVDCLRINPGNIGNEERIRSVVDCARDKNIPIRIGVNGGSLEKDLQMKYGEPTPEALVESAMRHVDHLDRLNFDQFKVSVKASDVFLAVDSYRLLAKKIDQPLHLGITEAGGARAGAVKSAVGLGMLLSEGIGDTLRISLAADPVEEIKVGFDILKSLRIRSRGINFIACPSCSRQEFDVIGTVNALEQRLEDIITPMDVSIIGCVVNGPGEAEVSHLGLAGSNKKSAFYEDGKRQKERFDNNDLVNQLEAKIRAKASMMDSENRIEIKVQD”, the protein production entry is “failed”.

With “MQHFKTKIEHFQIYIYFSAIILGILIGTNFPGISSILETLVAICIAILMFSMFSQIPFFELQKRVLNLKFVTALIIANFVILPILVYFLISIFNISSSAILIGLFLVLLTPCIDYVIVFTALGKGNAQYMLISTPILFVLQILLLPLYLTMFLDKSILTIIDIEPFIHSFFTFIIIPLLLALTLQLLSKKYYVMSQTLKATSWLPELFMSLVLFTVVGSQINKIANDLSVVVKVAPIYIIFMLIAPFIGYFTGKLFHLKPSILRTLAFSTSTRNALVVLPLALSLPDQWVTITTTVIITQTLIELIGELFYIKMIPSLIKS”, the protein production entry is reported as “failed”.

The record behind these values is a protein production outcome set (Wang et al. 2014).
